The labels stand for the following.
B1: Peroxisomal biogenesis factor 19 (Homo sapiens), P40855 (parent)
chain: MAAAEEGCSVGAEADRELEELLESALDDFDKAKPSPAPPSTTTAPDASGPQKRSPGDTAKDALFASQEKFFQELFDSELASQATAEFEKAMKELAEEEPHLVEQFQKLSEAAGRVGSDMTSQQEFTSCLKETLSGLAKNATDLQNSSMSEEELTKAMEGLGMDEGDGEGNILPIMQSIMQNLLSKDVLYPSLKEITEKYPEWLQSHRESLPPEQFEKYQEQHSVMCKICEQFEAETPTDSETTQKARFEMVLDLMQQLQDLGHPPKELAGEMPPGLNFDLDALNLSGPPGASGEQCLIM
partner: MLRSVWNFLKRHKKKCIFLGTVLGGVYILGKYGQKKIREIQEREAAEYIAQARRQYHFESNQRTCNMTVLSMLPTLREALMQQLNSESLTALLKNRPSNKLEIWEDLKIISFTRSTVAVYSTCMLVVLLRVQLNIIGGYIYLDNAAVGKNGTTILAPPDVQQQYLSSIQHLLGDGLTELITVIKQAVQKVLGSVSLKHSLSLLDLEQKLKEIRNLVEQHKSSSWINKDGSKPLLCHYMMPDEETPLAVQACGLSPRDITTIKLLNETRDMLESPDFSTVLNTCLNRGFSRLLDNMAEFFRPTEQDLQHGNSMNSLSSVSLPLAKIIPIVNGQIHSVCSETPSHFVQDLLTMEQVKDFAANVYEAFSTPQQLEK
B2: Mediator of RNA polymerase II transcription subunit 20 (Homo sapiens), Q9H944 (parent)
chain: MGVTCVSQMPVAEGKSVQQTVELLTRKLEMLGAEKQGTFCVDCETYHTAASTLGSQGQTGKLMYVMHNSEYPLSCFALFENGPCLIADTNFDVLMVKLKGFFQSAKASKIETRGTRYQYCDFLVKVGTVTMGPSARGISVEVEYGPCVVASDCWSLLLEFLQSFLGSHTPGAPAVFGNRHDAVYGPADTMVQYMELFNKIRKQQQVPVAGIR
partner: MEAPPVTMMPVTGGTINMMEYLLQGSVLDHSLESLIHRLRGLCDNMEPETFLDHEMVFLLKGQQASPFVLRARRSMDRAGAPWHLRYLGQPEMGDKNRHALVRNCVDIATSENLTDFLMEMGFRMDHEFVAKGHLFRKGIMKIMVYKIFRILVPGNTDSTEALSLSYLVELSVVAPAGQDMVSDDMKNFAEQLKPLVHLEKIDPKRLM
B3: WASH complex subunit 3 (Homo sapiens), Q9Y3C0 (parent)
chain: MDEDGLPLMGSGIDLTKVPAIQQKRTVAFLNQFVVHTVQFLNRFSTVCEEKLADLSLRIQQIETTLNILDAKLSSIPGLDDVTVEVSPLNVTSVTNGAHPEATSEQPQQNSTQDSGLQESEVSAENILTVAKDPRYARYLKMVQVGVPVMAIRNKMISEGLDPDLLERPDAPVPDGESEKTVEESSDSESSFSD
partner: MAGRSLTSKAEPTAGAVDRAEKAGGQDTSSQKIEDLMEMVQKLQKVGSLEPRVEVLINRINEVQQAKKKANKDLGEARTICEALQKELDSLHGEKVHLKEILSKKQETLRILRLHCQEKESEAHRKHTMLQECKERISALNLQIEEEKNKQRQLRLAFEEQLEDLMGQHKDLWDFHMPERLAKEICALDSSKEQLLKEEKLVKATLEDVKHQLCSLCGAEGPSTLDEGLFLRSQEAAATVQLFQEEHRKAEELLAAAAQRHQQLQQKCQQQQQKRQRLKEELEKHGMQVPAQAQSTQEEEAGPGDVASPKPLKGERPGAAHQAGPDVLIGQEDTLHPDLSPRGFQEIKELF
B4: Nucleoporin p54 (Homo sapiens), Q7Z3B4 (parent)
chain: MAFNFGAPSGTSGTAAATAAPAGGFGGFGTTSTTAGSAFSFSAPTNTGTTGLFGGTQNKGFGFGTGFGTTTGTSTGLGTGLGTGLGFGGFNTQQQQQTTLGGLFSQPTQAPTQSNQLINTASALSAPTLLGDERDAILAKWNQLQAFWGTGKGYFNNNIPPVEFTQENPFCRFKAVGYSCMPSNKDEDGLVVLVFNKKETEIRSQQQQLVESLHKVLGGNQTLTVNVEGTKTLPDDQTEVVIYVVERSPNGTSRRVPATTLYAHFEQANIKTQLQQLGVTLSMTRTELSPAQIKQLLQNPPAGVDPIIWEQAKVDNPDSEKLIPVPMVGFKELLRRLKVQDQMTKQHQTRLDIISEDISELQKNQTTSVAKIAQYKRKLMDLSHRTLQVLIKQEIQRKSGYAIQADEEQLRVQLDTIQGELNAPTQFKGRLNELMSQIRMQNHFGAVRSEERYYIDADLLREIKQHLKQQQEGLSHLISIIKDDLEDIKLVEHGLNETIHIRGGVFS
partner: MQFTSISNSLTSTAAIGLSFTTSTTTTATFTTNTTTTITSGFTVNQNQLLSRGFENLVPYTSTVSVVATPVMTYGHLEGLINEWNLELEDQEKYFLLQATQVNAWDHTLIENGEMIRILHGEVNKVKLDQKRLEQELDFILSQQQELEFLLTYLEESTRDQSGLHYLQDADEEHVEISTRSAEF
B5: Dynein light chain 2, cytoplasmic (Homo sapiens), Q96FJ2 (parent)
chain: MSDRKAVIKNADMSEDMQQDAVDCATQAMEKYNIEKDIAAYIKKEFDKKYNPTWHCIVGRNFGSYVTHETKHFIYFYLGQVAILLFKSG
partner: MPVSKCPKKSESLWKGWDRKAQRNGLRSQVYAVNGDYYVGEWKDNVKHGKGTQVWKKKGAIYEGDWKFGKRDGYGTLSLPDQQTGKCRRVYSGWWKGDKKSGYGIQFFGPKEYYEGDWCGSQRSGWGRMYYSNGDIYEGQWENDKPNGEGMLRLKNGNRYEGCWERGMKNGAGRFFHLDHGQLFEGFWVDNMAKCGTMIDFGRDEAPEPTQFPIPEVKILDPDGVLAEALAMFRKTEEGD

In the first experiment the parent is B1. Particulars: with pex3_human PEX3, P56589.
MAAAEKGCSVGAEADRELEELLESALDDFDKAKPSPAPPSTTTAPDASGPQKRSPGDTAKDALFASQEKFFQELFDSELASQATAEFEKAMKELAEEEPHLVEQFQKLSEAAGRVGSDMTSQQEFTSCLKETLSGLAKNATDLQNSSMSEEELTKAMEGLGMDEGDGEGNILPIMQSIMQNLLSKDVLYPSLKEITEKYPEWLQSHRESLPPEQFEKYQEQHSVMCKICEQFEAETPTDSETTQKARFEMVLDLMQQLQDLGHPPKELAGEMPPGLNFDLDALNLSGPPGASGEQCLIM [E6K]: the “effect of a mutation on the interaction” value is “with no effect”.

In a further experiment the parent is B2. As to conditions: with med18_human MED18, Q9BUE0.
MGVTCVSQMPVAEGKSVQQTVELLTRKLEMLGAEKQGTFCVDCETYHTATSTLGSQGQTGKLMYVMHNSEYPLSCFALFENGPCLIADTNFDVLMVKLKGFFQSAKASKIETRGTRYQYCDFLVKVGTVTMGPSARGISVEVEYGPCVVASDCWSLLLEFLQSFLGSHTPGAPAVFGNRHDAVYGPADTMVQYMELFNKIRKQQQVPVAGIR [A50T]: the “effect of a mutation on the interaction” value is reported as “with no effect”.

The variants in another experiment derive from B3. As to conditions: with syce1_human SYCE1, Q8N0S2.
Consider MDEDGLPLMGSGIDLTKVPAIQQKRTVAFLNQFVVHTVQFLNRLSTVCEEKLADLSLRIQQIETTLNILDAKLSSIPGLDDVTVEVSPLNVTSVTNGAHPEATSEQPQQNSTQDSGLQESEVSAENILTVAKDPRYARYLKMVQVGVPVMAIRNKMISEGLDPDLLERPDAPVPDGESEKTVEESSDSESSFSD, for which the “effect of a mutation on the interaction” value is given as “with no effect”.

In a further experiment the parent is B4. As to conditions: with NUP62CL.
For MAFNFGAPSGTSGTAAATAAPAGGFGGFGTTSTTAGSAFSFSAPTNTGTTGLFGGTQNKGFGFGTGFGTTTGTSTGLGTGLGTGLGFGGFNTQQQQQTTLGGLFSQPTQAPTQSNQLINTASALSAPTLLGDERDAILAKWNQLQAFWGTGKGYFNNNIPPVEFTQENPFCRFKAVGYSCMPSNKDEDGLVVLVFNKKETEIRSQQQQLVESLHKVLGGNQTLTVNVEGTKTLPDDQTEVVIYVVERSPNGTSRRVPATTLYAHFEQANIKTQLQQLGVTLSMTRTELSPAQIKQLLQNPPAGVDPIIWEQAKVDNPDSEKLIPVPMVGFKELLRRLKVQDQMTKQHQTRLDIISEDISELQKNQTTSVAKIAQYKRKLMDLSHKTLQVLIKQEIQRKSGYAIQADEEQLRVQLDTIQGELNAPTQFKGRLNELMSQIRMQNHFGAVRSEERYYIDADLLREIKQHLKQQQEGLSHLISIIKDDLEDIKLVEHGLNETIHIRGGVFS [R385K], the “effect of a mutation on the interaction” value is listed as “with no effect”. The same measure, in the same setting: for MAFNFGAPSGTSGTAAATAAPAGGFGGFGTTSTTAGSAFSFSAPTNTGTTGLFGGTQNKGFGFGTGFGTTTGTSTGLGTGLGTGLGFGGFNTQQQQQTTLGGLFSQPTQAPTQSNQLINTASALSAPTLLGDERDAILAKWNQLQAFWGTGKGYFNNNIPPVEFTQENPFCRFKAVGYSCMPSNKDEDGLVVLVFNKKETEIRSQQQQLVESLHKVLGGNQTLTVNVEGTKTLPDDQTEVVIYVVERSPSGTSRRVPATTLYAHFEQANIKTQLQQLGVTLSMTRTELSPAQIKQLLQNPPAGVDPIIWEQAKVDNPDSEKLIPVPMVGFKELLRRLKVQDQMTKQHQTRLDIISEDISELQKNQTTSVAKIAQYKRKLMDLSHRTLQVLIKQEIQRKSGYAIQADEEQLRVQLDTIQGELNAPTQFKGRLNELMSQIRMQNHFGAVRSEERYYIDADLLREIKQHLKQQQEGLSHLISIIKDDLEDIKLVEHGLNETIHIRGGVFS [N250S] the value was “with no effect”.

The next experiment covers variants of B4. As to conditions: with NUP62CL. This is another data set of the same source.
As to MAFNFGAPSGTSGTAAATAAPAGGFGGFGTTSTTAGSAFSFSAPTNTGTTGLFGGTQNKGFGFGTGFGTTTGTSTGLGTGLGTGLGFGGFNTQQQQQTTLGGLFSQPTQAPTQSNQLINTASALSAPTLLGDERDAILAKWNQLQAFWGTGKGYFNNNIPPVEFTQENPFCRFKAVGYSCMPSNKDEDGLVVLVFNKKETEIRSQQQQLVESLHKVLGGNQTLTVNVEGTKTLPDDQTEVVIYVVERSPNGTSRRVPATTLYAHFEQANIKTQLQQLGVTLSMTRTELSPAQIKQLLQNPPAGVDPIIWEQAKVDNPDSEKLIPVPMVGFKELLRRLKVQDQMTKQHQTRLDIISEDISELQKNQTTSVAKIAQYKRKLMDLSHRTLQVLIKQEIQRKSGYAIQADEEQLRVQLDAIQGELNAPTQFKGRLNELMSQIRMQNHFGAVRSEERYYIDADLLREIKQHLKQQQEGLSHLISIIKDDLEDIKLVEHGLNETIHIRGGVFS [T416A], the “effect of a mutation on the interaction” value is recorded as “with no effect”.

In another experiment the parent is B5. Particulars: with morn3_human MORN3, Q6PF18.
Regarding MSDRKAVIKNADMSEDMQQDAVDCATQAMEKYSIEKDIAAYIKKEFDKKYNPTWHCIVGRNFGSYVTHETKHFIYFYLGQVAILLFKSG, the “effect of a mutation on the interaction” value was “with no effect”.

The values above are taken from IntAct's records for PubMed 31515488.
